Reference: the RNAGym collection of RNA variant scans (doi:10.1093/molbev/msab373)

B1: Azoarcus group I ribozyme (parent)
chain: GUGCCUUGCGCCGGGAAACCACGCAAGGGAUGGUGUCAAAUUCGGCGAAACCUAAGCGCCCGCCCGGGCGUAUGGCAACGCCGAGCCAAGCUUCGGCGCCUGCGCCGAUGAAGGUGUAGAGACUAGACGGCACCCACCUAAGGCAAACGCUAUGGUGAAGGCAUAGUCCAGGGAGUGGCGAAAGUCACACAAACCGG

Variants of: B1
Experiment: reverse-splicing fitness (ratio to wild type); higher = more active; in vitro selection; Mg2+ level not given
Outline: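 An in vitro group I ribozyme library with randomized positions was T7-transcribed and gel-purified. In triplicate, 10 pmol RNA in EPPS pH 7.5 was reacted with 50 pmoles of a 30-nt RNA substrate for 1 h at 37 °C across several added MgCl2 levels (1–48 mM), then stopped with EDTA. Products were reverse transcribed from a substrate-complementary primer, PCR-amplified and sequenced (HiSeq 4000). Fitness is a variant's read proportion after selection over that before, normalised to wild type.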
Variant C82U A145G C150A C169G U176A has a reverse-splicing fitness of 0.0162.
For C82U A145G C150A C169G U176C, the reverse-splicing fitness was 0.0265.
C82U C150G C169G U176A showed a reverse-splicing fitness of 0.00631.
For C82U C150G C169G U176G, the reverse-splicing fitness was 0.00464.
With C82U C150G C169G U176C the reverse-splicing fitness was 0.0054.
In the case of C82U A120U A145U C150U C169A U176G, the reverse-splicing fitness is reported as 0.0019.
For C82U A120U A145U C150U C169A U176C, the reverse-splicing fitness was 0.00256.
Variant C82U A120U A145U C150U C169A U176A has a reverse-splicing fitness of 0.00262.
With C82U A120U C150G C169U U176A the reverse-splicing fitness was 0.00334.
C82U A120U C150G C169U U176G gave a reverse-splicing fitness of 0.00244.
With C82U A120U C150G C169U U176C the reverse-splicing fitness was 0.00349.
C82U A145G C169G U176C gave a reverse-splicing fitness of 0.0258.
For C82U A145G C169G U176A, the reverse-splicing fitness was 0.0184.
C82U A145G C169G U176G gave a reverse-splicing fitness of 0.00452.
Variant C82U A145C C169G U176A has a reverse-splicing fitness of 0.0179.
With C82U A145C C169G U176G the reverse-splicing fitness was 0.00428.
C82U A145C C169G U176C gave a reverse-splicing fitness of 0.00995.
C82U A145U C150U C169U U176C gave a reverse-splicing fitness of 0.0115.
With C82U A145U C150U C169U U176G the reverse-splicing fitness was 0.00433.
C82U A145U C150U C169U U176A showed a reverse-splicing fitness of 0.0133.
In the case of C82U A120U A145U C150U U176C, the reverse-splicing fitness is reported as 0.0465.
With C82U A120U A145U C150U U176A the reverse-splicing fitness was 0.0284.
Variant C82U A120U A145U C150U U176G has a reverse-splicing fitness of 0.00848.
Work on C82U A145C C150G C169G U176A yielded a reverse-splicing fitness of 0.00879.
C82U A145C C150G C169G U176C showed a reverse-splicing fitness of 0.00649.
Work on C82U A145C C150G C169G U176G yielded a reverse-splicing fitness of 0.00454.
Work on C82U C150U C169U U176A yielded a reverse-splicing fitness of 0.0128.
For C82U C150U C169U U176G, the reverse-splicing fitness was 0.00558.
Variant C82U C150U C169U U176C has a reverse-splicing fitness of 0.0135.
C82U A145C C169A gave a reverse-splicing fitness of 0.00714.
C82U A145C C169G showed a reverse-splicing fitness of 0.00966.
Variant C82U A145C C169U has a reverse-splicing fitness of 0.0123.
With C82U A145U the reverse-splicing fitness was 0.626.
Variant C82U A145C has a reverse-splicing fitness of 0.598.
C82U A145G gave a reverse-splicing fitness of 0.63.
In the case of C82U A145G C150A C169A U176C, the reverse-splicing fitness is reported as 0.0216.
With C82U A145G C150A C169A U176G the reverse-splicing fitness was 0.00596.
Variant C82U A145G C150A C169A U176A has a reverse-splicing fitness of 0.0196.
In the case of C82U A145U C169U U176C, the reverse-splicing fitness is reported as 0.0127.
C82U A145U C169U U176G gave a reverse-splicing fitness of 0.00406.
In the case of C82U A145U C169U U176A, the reverse-splicing fitness is reported as 0.0111.
Work on C82U A145G C169U U176A yielded a reverse-splicing fitness of 0.0137.
C82U A145G C169U U176G gave a reverse-splicing fitness of 0.00391.
In the case of C82U A145G C169U U176C, the reverse-splicing fitness is reported as 0.0131.
Work on C82U C150A U176C yielded a reverse-splicing fitness of 0.0779.
C82U C150A U176G showed a reverse-splicing fitness of 0.0218.
C82U C150A U176A showed a reverse-splicing fitness of 0.0603.
C82U A120U A145U C169U showed a reverse-splicing fitness of 0.00594.
C82U A120U A145U C169G gave a reverse-splicing fitness of 0.00533.
Variant C82U A120U A145U C169A has a reverse-splicing fitness of 0.00208.
C82U A120U C150G C169A U176G showed a reverse-splicing fitness of 0.00234.
C82U A120U C150G C169A U176C gave a reverse-splicing fitness of 0.003.
Variant C82U A120U C150G C169A U176A has a reverse-splicing fitness of 0.00476.
Work on C82U A120U C169A U176A yielded a reverse-splicing fitness of 0.00238.
Work on C82U A120U C169A U176C yielded a reverse-splicing fitness of 0.00216.
For C82U A120U C169A U176G, the reverse-splicing fitness was 0.00126.
In the case of C82U A145C C150A U176A, the reverse-splicing fitness is reported as 0.031.
With C82U A145C C150A U176G the reverse-splicing fitness was 0.0119.
Variant C82U A145C C150A U176C has a reverse-splicing fitness of 0.0348.
In the case of C82U A145G C150U C169A U176G, the reverse-splicing fitness is reported as 0.00522.
With C82U A145G C150U C169A U176A the reverse-splicing fitness was 0.0158.
C82U A145G C150U C169A U176C gave a reverse-splicing fitness of 0.0136.
With C82U A145G C150U C169U U176A the reverse-splicing fitness was 0.0142.
For C82U A145G C150U C169U U176G, the reverse-splicing fitness was 0.00493.
C82U A145G C150U C169U U176C showed a reverse-splicing fitness of 0.0134.
C82U A145C C169A U176G gave a reverse-splicing fitness of 0.00383.
Variant C82U A145C C169A U176A has a reverse-splicing fitness of 0.00806.
Variant C82U A145C C169A U176C has a reverse-splicing fitness of 0.00633.
C82U A145C C150U U176A showed a reverse-splicing fitness of 0.114.
C82U A145C C150U U176C showed a reverse-splicing fitness of 0.127.
C82U A145C C150U U176G showed a reverse-splicing fitness of 0.0408.
Work on C82U C150U C169A U176A yielded a reverse-splicing fitness of 0.0154.
Variant C82U C150U C169A U176G has a reverse-splicing fitness of 0.00561.
Work on C82U C150U C169A U176C yielded a reverse-splicing fitness of 0.0123.
Work on C82U A145G C150G U176A yielded a reverse-splicing fitness of 0.0372.
In the case of C82U A145G C150G U176G, the reverse-splicing fitness is reported as 0.0108.
For C82U A145G C150G U176C, the reverse-splicing fitness was 0.0584.
Work on C82U A120U C150U C169A U176A yielded a reverse-splicing fitness of 0.00329.
In the case of C82U A120U C150U C169A U176G, the reverse-splicing fitness is reported as 0.00208.
Work on C82U A120U C150U C169A U176C yielded a reverse-splicing fitness of 0.00192.
C82U A145U C150G U176A gave a reverse-splicing fitness of 0.0424.
C82U A145U C150G U176G showed a reverse-splicing fitness of 0.0104.
With C82U A145U C150G U176C the reverse-splicing fitness was 0.0567.
